According to the supplement of paper PMC10567573:

B1: CDC25A (parent)
chain: QLIDPDENKENEAFEFKKPVRPVS
B2: SPDEF (parent)
chain: YPEDSSWAAKAPGASSREEPPEEP

Variants of: B1
Assay: protein stability index of a GFP-peptide fusion (GPS, HEK-293T) (PSI 1-6); higher = more stable
Conditions: c terminus: a fixed tail appended
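Further: lentivirally expressed fusions sorted by FACS into six bins by GFP to DsRed ratio, PSI derived from sequencing read proportions per bin multiplied by bin number.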

Variant	protein stability index
QLIDPDPNKENEAFEFKKPVRPVS [E7P]	4.68
QLIDPDCNKENEAFEFKKPVRPVS [E7C]	4
QLIDPDFNKENEAFEFKKPVRPVS [E7F]	3.63
QLIDPDHNKENEAFEFKKPVRPVS [E7H]	3.94
QLIDPDNNKENEAFEFKKPVRPVS [E7N]	3.42
QLIDPDSNKENEAFEFKKPVRPVS [E7S]	3.37
QLIDPDKNKENEAFEFKKPVRPVS [E7K]	4.59
QLIDPDVNKENEAFEFKKPVRPVS [E7V]	4.11
QLIDPDQNKENEAFEFKKPVRPVS [E7Q]	3.58
QLIDPDINKENEAFEFKKPVRPVS [E7I]	4.06
QLIDPDLNKENEAFEFKKPVRPVS [E7L]	3.33
QLIDPDWNKENEAFEFKKPVRPVS [E7W]	3.3
QLIDPDYNKENEAFEFKKPVRPVS [E7Y]	3.45
QLIDPDRNKENEAFEFKKPVRPVS [E7R]	3.92
QLIDPDMNKENEAFEFKKPVRPVS [E7M]	3.95
QLIDPDTNKENEAFEFKKPVRPVS [E7T]	4.15
QLIDPDANKENEAFEFKKPVRPVS [E7A]	4.25
QLIDPDDNKENEAFEFKKPVRPVS [E7D]	3.97
QLIDPDGNKENEAFEFKKPVRPVS [E7G]	3.02
ELIDPDENKENEAFEFKKPVRPVS [Q1E]	4.56
DLIDPDENKENEAFEFKKPVRPVS [Q1D]	2.88
MLIDPDENKENEAFEFKKPVRPVS [Q1M]	3.97
ALIDPDENKENEAFEFKKPVRPVS [Q1A]	4.36
WLIDPDENKENEAFEFKKPVRPVS [Q1W]	2.44
CLIDPDENKENEAFEFKKPVRPVS [Q1C]	3.81

Variant	protein stability index
HLIDPDENKENEAFEFKKPVRPVS [Q1H]	4.72
NLIDPDENKENEAFEFKKPVRPVS [Q1N]	3.83
LLIDPDENKENEAFEFKKPVRPVS [Q1L]	2.93
ILIDPDENKENEAFEFKKPVRPVS [Q1I]	3.39
RLIDPDENKENEAFEFKKPVRPVS [Q1R]	3.44
PLIDPDENKENEAFEFKKPVRPVS [Q1P]	4.06
SLIDPDENKENEAFEFKKPVRPVS [Q1S]	4.43
FLIDPDENKENEAFEFKKPVRPVS [Q1F]	4.05
YLIDPDENKENEAFEFKKPVRPVS [Q1Y]	2.32
VLIDPDENKENEAFEFKKPVRPVS [Q1V]	3.6
TLIDPDENKENEAFEFKKPVRPVS [Q1T]	3.58
QLIDFDENKENEAFEFKKPVRPVS [P5F]	2.88
QLIDHDENKENEAFEFKKPVRPVS [P5H]	3.61
QLIDDDENKENEAFEFKKPVRPVS [P5D]	3.92
QLIDQDENKENEAFEFKKPVRPVS [P5Q]	3.87
QLIDIDENKENEAFEFKKPVRPVS [P5I]	3.07
QLIDWDENKENEAFEFKKPVRPVS [P5W]	3.51
QLIDYDENKENEAFEFKKPVRPVS [P5Y]	2.85
QLIDRDENKENEAFEFKKPVRPVS [P5R]	3.66
QLIDGDENKENEAFEFKKPVRPVS [P5G]	3.9
QLIDTDENKENEAFEFKKPVRPVS [P5T]	3.61
QLIDMDENKENEAFEFKKPVRPVS [P5M]	3.88
QLIDCDENKENEAFEFKKPVRPVS [P5C]	4.12
QLIDADENKENEAFEFKKPVRPVS [P5A]	3.99
QLIDNDENKENEAFEFKKPVRPVS [P5N]	4.06

Variant	protein stability index
QLIDVDENKENEAFEFKKPVRPVS [P5V]	3.74
QLIDKDENKENEAFEFKKPVRPVS [P5K]	3.95
QLIDSDENKENEAFEFKKPVRPVS [P5S]	3.25
QLIDPDENAENEAFEFKKPVRPVS [K9A]	4.37
QLIDPDENPENEAFEFKKPVRPVS [K9P]	4.62
QLIDPDENEENEAFEFKKPVRPVS [K9E]	4.62
QLIDPDENFENEAFEFKKPVRPVS [K9F]	4.04
QLIDPDENHENEAFEFKKPVRPVS [K9H]	4.18
QLIDPDENSENEAFEFKKPVRPVS [K9S]	4.39
QLIDPDENRENEAFEFKKPVRPVS [K9R]	4.21
QLIDPDENWENEAFEFKKPVRPVS [K9W]	3.82
QLIDPDENDENEAFEFKKPVRPVS [K9D]	4.97
QLIDPDENMENEAFEFKKPVRPVS [K9M]	4.09
QLIDPDENCENEAFEFKKPVRPVS [K9C]	4.54
QLIDPDENLENEAFEFKKPVRPVS [K9L]	3.51
QLIDPDENNENEAFEFKKPVRPVS [K9N]	4.65
QLIDPDENGENEAFEFKKPVRPVS [K9G]	4.2
QLIDPDENIENEAFEFKKPVRPVS [K9I]	3.89
QLIDPDENQENEAFEFKKPVRPVS [K9Q]	4.74
QLIDPDENVENEAFEFKKPVRPVS [K9V]	4.83
QLIDPDENTENEAFEFKKPVRPVS [K9T]	4
QLIDPDENYENEAFEFKKPVRPVS [K9Y]	5.01
QLIDPDENKTNEAFEFKKPVRPVS [E10T]	4.3
QLIDPDENKDNEAFEFKKPVRPVS [E10D]	3.98
QLIDPDENKNNEAFEFKKPVRPVS [E10N]	3.78

Variant	protein stability index
QLIDPDENKSNEAFEFKKPVRPVS [E10S]	4.2
QLIDPDENKGNEAFEFKKPVRPVS [E10G]	4.33
QLIDPDENKKNEAFEFKKPVRPVS [E10K]	4.35
QLIDPDENKLNEAFEFKKPVRPVS [E10L]	3.97
QLIDPDENKCNEAFEFKKPVRPVS [E10C]	3.84
QLIDPDENKINEAFEFKKPVRPVS [E10I]	4.13
QLIDPDENKQNEAFEFKKPVRPVS [E10Q]	4.29
QLIDPDENKFNEAFEFKKPVRPVS [E10F]	3.12
QLIDPDENKPNEAFEFKKPVRPVS [E10P]	3.1
QLIDPDENKMNEAFEFKKPVRPVS [E10M]	3.71
QLIDPDENKRNEAFEFKKPVRPVS [E10R]	4.43
QLIDPDENKANEAFEFKKPVRPVS [E10A]	4.25
QLIDPIENKENEAFEFKKPVRPVS [D6I]	4.22
QLIDPWENKENEAFEFKKPVRPVS [D6W]	3.59
QLIDPYENKENEAFEFKKPVRPVS [D6Y]	4.02
QLIDPAENKENEAFEFKKPVRPVS [D6A]	3.75
QLIDPKENKENEAFEFKKPVRPVS [D6K]	3.87
QLIDPLENKENEAFEFKKPVRPVS [D6L]	3.23
QLIDPRENKENEAFEFKKPVRPVS [D6R]	3.58
QLIDPEENKENEAFEFKKPVRPVS [D6E]	3.88
QLIDPHENKENEAFEFKKPVRPVS [D6H]	3.94
QLIDPCENKENEAFEFKKPVRPVS [D6C]	4.51
QLIDPPENKENEAFEFKKPVRPVS [D6P]	4.53
QLIDPVENKENEAFEFKKPVRPVS [D6V]	3.83
QLIDPNENKENEAFEFKKPVRPVS [D6N]	4.4

Variant	protein stability index
QLIDPQENKENEAFEFKKPVRPVS [D6Q]	4.6
QLIDPGENKENEAFEFKKPVRPVS [D6G]	3.64
QLIDPFENKENEAFEFKKPVRPVS [D6F]	3.88
QLIDPMENKENEAFEFKKPVRPVS [D6M]	4.14
QLIDPSENKENEAFEFKKPVRPVS [D6S]	3.74
QLIDPTENKENEAFEFKKPVRPVS [D6T]	3.87
QNIDPDENKENEAFEFKKPVRPVS [L2N]	4.58
QTIDPDENKENEAFEFKKPVRPVS [L2T]	4.31
QKIDPDENKENEAFEFKKPVRPVS [L2K]	4.29
QYIDPDENKENEAFEFKKPVRPVS [L2Y]	4.17
QQIDPDENKENEAFEFKKPVRPVS [L2Q]	4.41
QIIDPDENKENEAFEFKKPVRPVS [L2I]	2.73
QMIDPDENKENEAFEFKKPVRPVS [L2M]	3.72
QCIDPDENKENEAFEFKKPVRPVS [L2C]	4.64
QPIDPDENKENEAFEFKKPVRPVS [L2P]	5.03
QVIDPDENKENEAFEFKKPVRPVS [L2V]	3.29
QFIDPDENKENEAFEFKKPVRPVS [L2F]	3.35
QEIDPDENKENEAFEFKKPVRPVS [L2E]	5.02
QAIDPDENKENEAFEFKKPVRPVS [L2A]	4.69
QHIDPDENKENEAFEFKKPVRPVS [L2H]	4.54
QSIDPDENKENEAFEFKKPVRPVS [L2S]	4.16
QDIDPDENKENEAFEFKKPVRPVS [L2D]	4.51
QWIDPDENKENEAFEFKKPVRPVS [L2W]	3.43
QLIDPDEDKENEAFEFKKPVRPVS [N8D]	4.28
QLIDPDEGKENEAFEFKKPVRPVS [N8G]	5.06

Variant	protein stability index
QLIDPDEKKENEAFEFKKPVRPVS [N8K]	4.5
QLIDPDERKENEAFEFKKPVRPVS [N8R]	4.86
QLIDPDEVKENEAFEFKKPVRPVS [N8V]	4.94
QLIDPDEFKENEAFEFKKPVRPVS [N8F]	4.08
QLIDPDECKENEAFEFKKPVRPVS [N8C]	4.45
QLIDPDEYKENEAFEFKKPVRPVS [N8Y]	3.59
QLIDPDEQKENEAFEFKKPVRPVS [N8Q]	4.95
QLIDPDEPKENEAFEFKKPVRPVS [N8P]	4.28
QLIDPDESKENEAFEFKKPVRPVS [N8S]	4.05
QLIDPDELKENEAFEFKKPVRPVS [N8L]	4.52
QLIDPDEHKENEAFEFKKPVRPVS [N8H]	4.59
QLIDPDEEKENEAFEFKKPVRPVS [N8E]	3.95
QLIDPDEIKENEAFEFKKPVRPVS [N8I]	4.7
QLIDPDEMKENEAFEFKKPVRPVS [N8M]	4.09
QLIDPDEAKENEAFEFKKPVRPVS [N8A]	4.31
QLIDPDETKENEAFEFKKPVRPVS [N8T]	4.61
QLQDPDENKENEAFEFKKPVRPVS [I3Q]	3.95
QLNDPDENKENEAFEFKKPVRPVS [I3N]	3.6
QLLDPDENKENEAFEFKKPVRPVS [I3L]	3.15
QLYDPDENKENEAFEFKKPVRPVS [I3Y]	3.74
QLFDPDENKENEAFEFKKPVRPVS [I3F]	3.91
QLPDPDENKENEAFEFKKPVRPVS [I3P]	4.3
QLMDPDENKENEAFEFKKPVRPVS [I3M]	3.75
QLCDPDENKENEAFEFKKPVRPVS [I3C]	3.92
QLDDPDENKENEAFEFKKPVRPVS [I3D]	4.64

Variant	protein stability index
QLADPDENKENEAFEFKKPVRPVS [I3A]	4.23
QLRDPDENKENEAFEFKKPVRPVS [I3R]	4.75
QLTDPDENKENEAFEFKKPVRPVS [I3T]	4.12
QLEDPDENKENEAFEFKKPVRPVS [I3E]	4.74
QLVDPDENKENEAFEFKKPVRPVS [I3V]	4.05
QLGDPDENKENEAFEFKKPVRPVS [I3G]	4.58
QLKDPDENKENEAFEFKKPVRPVS [I3K]	3.86
QLHDPDENKENEAFEFKKPVRPVS [I3H]	4.59
QLICPDENKENEAFEFKKPVRPVS [D4C]	3.37
QLITPDENKENEAFEFKKPVRPVS [D4T]	3.65
QLIHPDENKENEAFEFKKPVRPVS [D4H]	4.23
QLIKPDENKENEAFEFKKPVRPVS [D4K]	3.87
QLIIPDENKENEAFEFKKPVRPVS [D4I]	3.83
QLIWPDENKENEAFEFKKPVRPVS [D4W]	3.45
QLIFPDENKENEAFEFKKPVRPVS [D4F]	4.09
QLISPDENKENEAFEFKKPVRPVS [D4S]	3.58
QLIVPDENKENEAFEFKKPVRPVS [D4V]	3.44
QLINPDENKENEAFEFKKPVRPVS [D4N]	3.2
QLILPDENKENEAFEFKKPVRPVS [D4L]	3.91
QLIRPDENKENEAFEFKKPVRPVS [D4R]	3.3
QLIYPDENKENEAFEFKKPVRPVS [D4Y]	3.84
QLIMPDENKENEAFEFKKPVRPVS [D4M]	3.94
QLIGPDENKENEAFEFKKPVRPVS [D4G]	3.56
QLIAPDENKENEAFEFKKPVRPVS [D4A]	3.67
QLIEPDENKENEAFEFKKPVRPVS [D4E]	3.99

Variants of: B2
Assay: as above
Conditions: c terminus: a fixed tail appended

Variant	protein stability index
MPEDSSWAAKAPGASSREEPPEEP [Y1M]	5.93
YPEDSSWAAKAPGISSREEPPEEP [A14I]	4.56
YPEDSSWAAKAPGESSREEPPEEP [A14E]	3.88
YPEDSSWAAKAPGALSREEPPEEP [S15L]	3.58
YPEDSSWAAKAPGATSREEPPEEP [S15T]	3.97
YPEDSSWAAKGPGASSREEPPEEP [A11G]	3.68
YPEDSSWAAKAPGASSRWEPPEEP [E18W]	3.3
YPEDSSWAAKAPEASSREEPPEEP [G13E]	4.05
YPEDSSWAAKAPYASSREEPPEEP [G13Y]	3.49
YPEDSSWAAKAPGASSREHPPEEP [E19H]	3.12
YPEDSSWAAKAPGASPREEPPEEP [S16P]	3.72
YPEDSSWAAKAPGASSREEPPTEP [E22T]	4.31
YPEDWSWAAKAPGASSREEPPEEP [S5W]	3.99
